Measurements published in patent US20240226314A1 (Sanofi, published 2024).
Several values for one entry are separate records, joined by “and”; a condition that tells them apart may be missing. Equal values may be shown once. Read-outs that look alike come from different tables or passages of the source.

B1: 531v25Fab-FcOL (other)
heavy: QVQLVQSGAEVKKPGASVKVSCKASGYTFTRYYLNWVRQAPGQGLEWIGMIDPSVSETHYAQKFQGRATLTVDKSTSTAYMELSSLRSEDTAVYYCSQIRLPYYYAMDSWGQGTTVTVSSASTKGPSVFPLAPSSKSTSGGTAALGCLVKDYFPEPVTVSWNSGALTSGVHTFPAVLQSSGLYSLSSVVTVPSSSLGTQTYICNVNHKPSNTKVDKKVEPKSCDKTHTCPPCPAPELLGGPSVFLFPPKPKDTLMISRTPEVTCVVVDVSHEDPEVKFNWYVDGVEVHNAKTKPREEQYNNASRVVSVLTVLHQDWLNGKEYKCKVSNKALPAPIEKTISKAKGQPREPQVCTLPPSRDELTKNQVSLSCAVKGFYPSDIAVEWESNGQPENNYKTTPPVLDSDGSFFLVSKLTVDKSRWQQGNVFSCSVMHEALHNRFTQKSLSLSPG
light: not shown
chain: DKTHTCPPCPAPELLGGPSVFLFPPKPKDTLMISRTPEVTCVVVDVSHEDPEVKFNWYVDGVEVHNAKTKPREEQYNNASRVVSVLTVLHQDWLNGKEYKCKVSNKALPAPIEKTISKAKGQPREPQVYTLPPCRDELTKNQVSLWCLVKGFYPSDIAVEWESNGQPENNYKTTPPVLDSDGSFFLYSKLTVDKSRWQQGNVFSCSVMHEALHNHYTQKSLSLSPG
notes: Monovalent heterotrimer; It has a full IgG1 heavy chain (NNAS, hole, RF), a kappa light chain and an Fc polypeptide (knob) that dimerizes with the heavy chain
B2: cTfR: AviTag fused in the N-terminus of the ectodomain of cTfR (amino acid residues 90 to 760 of SEQ ID NO: 2) (receptor)
chain: GSHHHHHHHHGGGGSLNDIFEAQKIEWHGSKGVEPKTECERLAGTESPAREEPEEDFPAAPRLYWDDLKRKLSEKLDTTDFTSTIKLLNENLYVPREAGSQKDENLALYIENQFREFKLSKVWRDQHFVKIQVKDSAQNSVIIVDKNGGLVYLVENPGGYVAYSKAATVTGKLVHANFGTKKDFEDLDSPVNGSIVIVRAGKITFAEKVANAESLNAIGVLIYMDQTKFPIVKADLSFFGHAHLGTGDPYTPGFPSFNHTQFPPSQSSGLPNIPVQTISRAAAEKLFGNMEGDCPSDWKTDSTCKMVTSENKSVKLTVSNVLKETKILNIFGVIKGFVEPDHYVVVGAQRDAWGPGAAKSSVGTALLLKLAQMFSDMVLKDGFQPSRSIIFASWSAGDFGSVGATEWLEGYLSSLHLKAFTYINLDKAVLGTSNFKVSASPLLYTLIEKTMQDVKHPVTGRSLYQDSNWASKVEKLTLDNAAFPFLAYSGIPAVSFCFCEDTDYPYLGTTMDTYKELVERIPELNKVARAAAEVAGQFVIKLTHDTELNLDYERYNSQLLLFLRDLNQYRADVKEMGLSLQWLYSARGDFFRATSRLTTDFRNAEKRDKFVMKKLNDRVMRVEYYFLSPYVSPKESPFRHVFWGSGSHTLSALLESLKLRRQNNSAFNETLFRNQLALATWTIQGAANALSGDVWDIDNEF
modifications: site-specific biotinylation on N-terminal Avitag
notes: Immobilised on streptavidin probes for BLI; also called biotinylated cTfR ectodomain

Experiments:
[1] = target: B2; assay: BLI; KD on cTfR against KD on hTfR
Text: (§1) A 1:1 binding model with global fitting was applied after double subtraction for buffer and probe analyte interaction with a 0-90 second association and 0-60 dissociation window.

[2] = target: B2; assay: BLI; KD on cTfR against KD on hTfR
Text: as §1

[3] = target: T1, hTfR: AviTag fused to the N-terminus of the ectodomain of human TfR (residues 90 to 760 of SEQ ID NO: 1) (human, UniProt P02786 90-760, site-specific biotinylation on N-terminal Avitag); assay: BLI, immobilised AviTag-hTfR ectodomain, no saturation
T1 construct: also called biotinylated hTfR ectodomain
Text: as §1, with “window. […] A 1:1 binding model with global fitting was applied after double subtraction for buffer and probe analyte interaction.” for “window.”

[4] = target: T2, His-tagged human TfR ectodomain (hTFRC_89-760_G142S; mature protein) (human, UniProt P02786 89-760); assay: SPR, His-tagged TfR ectodomain captured on anti-His, 1:1 fit
T2 construct: It carries the G142S haplotype; also called hTfR ectodomain
Protocol: (§2) Binding of the humanized Fab variants to human, cynomolgus and mouse TfR was assessed using SPR at pH 7.4. Experiments were run on a Bruker MASS-2 instrument with HBS-EP+ as running buffer and sample diluent (Cytiva Life Sciences, #BR100826). HCA sensor chips (Bruker, #1862614) were immobilized with anti-His antibody (His capture kit, Cytiva Life Sciences, #28995056) following manufacturer's instructions. About 10,000 RU of anti-His was obtained. His-tagged hTfR ectodomain (SEQ ID NO: 39), cTfR ectodomain (SEQ ID NO: 40) or mouse TfR ectodomain (SEQ ID NO: 41) (5 μg/ml) was captured for 1 min at 10 μL/min. Concentration series of the humanized Fab variants were then injected for 4 min at 30 μL/min over hTfR surfaces and dissociation was monitored for 5 min. Surface was regenerated with one 1 min pulse of 10 mM glycine-HCl at pH 1.5.

[5] = target: T3, His-tagged cynomolgus monkey TfR ectodomain (cyTFRC_89_760; mature protein) (cynomolgus monkey (Macaca fascicularis), UniProt Q5RDH6 89-760 (Pongo abelii entry)); assay: as above
T3 construct: also called cTfR; cTfR ectodomain
T3 chain: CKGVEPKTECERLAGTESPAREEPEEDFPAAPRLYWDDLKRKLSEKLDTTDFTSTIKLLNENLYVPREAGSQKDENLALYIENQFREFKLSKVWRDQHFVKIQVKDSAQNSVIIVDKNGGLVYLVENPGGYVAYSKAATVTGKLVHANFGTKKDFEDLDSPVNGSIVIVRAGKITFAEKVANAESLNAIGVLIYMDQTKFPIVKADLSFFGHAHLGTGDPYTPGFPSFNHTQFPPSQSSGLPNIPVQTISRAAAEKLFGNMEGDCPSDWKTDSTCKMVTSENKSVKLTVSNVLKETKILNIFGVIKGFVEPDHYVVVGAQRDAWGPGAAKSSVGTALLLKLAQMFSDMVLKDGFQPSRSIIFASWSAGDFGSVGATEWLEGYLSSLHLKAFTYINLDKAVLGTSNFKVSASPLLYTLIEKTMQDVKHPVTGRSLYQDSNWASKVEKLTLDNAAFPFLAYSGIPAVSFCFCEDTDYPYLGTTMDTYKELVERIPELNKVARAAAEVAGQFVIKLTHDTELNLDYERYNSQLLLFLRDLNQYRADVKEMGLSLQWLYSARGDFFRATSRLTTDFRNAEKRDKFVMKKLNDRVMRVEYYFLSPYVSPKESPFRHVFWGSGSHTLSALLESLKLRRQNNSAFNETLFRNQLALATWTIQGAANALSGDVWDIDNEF
Protocol: as §2

[6] = target: T1, hTfR: AviTag fused to the N-terminus of …; assay: BLI, immobilised hTfR pre-saturated with 500 nM human holo-transferrin (competitor)
Text: as §1, with “window. […] A 1:1 binding model with global fitting was applied after double subtraction for buffer and probe analyte interaction.” for “window.”

[7] = target: T1, hTfR: AviTag fused to the N-terminus of …; assay: BLI (Octet), biotinylated AviTag-TfR ectodomain on streptavidin probes, 1:1 global fit
Text: as §1

[8] = target: B2; assay: as above
Text: as §1

[9] = target: T1, hTfR: AviTag fused to the N-terminus of …; assay: as above; remark: listed apart in the source
Text: as §1

[10] = target: B2; assay: as above
Text: as §1

[11] = target: T4, anti-TfR 531v25-Fab-FcOL-GAA; assay: as above
T4 construct: Monovalent Fab-FcOL with GAA fused to the C-terminus of the Fc polypeptide
Text: as §1

| Binder | Cynomolgus/human KD ratio [1] | Cynomolgus/human KD ratio [2] | Kd [3] | Kd [4] | Kd [5] | Kd [6] | Kd [7] | Kd [8] | Kd [9] | Kd [10] | Kd [11] |
| --- | --- | --- | --- | --- | --- | --- | --- | --- | --- | --- | --- |
| B1 | 4.7 | 4.7 | 22.1 nM | 11.8 nM and 15 nM and 8.5 nM | 124 nM and 140 nM and 109 nM | 44 nM | 22.1 nM | 103 nM | 22.1 nM | 103 nM | – |
| B2 | – | – | – | – | – | – | – | – | – | – | 69.9 nM |
